Drawing on US20210139574A1, this text covers IC50, cellular Tau aggregation assay and Imax (maximal efficacy for one molecule.

This test has as its target Tau seeds: brain fraction from transgenic mice expressing human Tau P301S (human), P10636. In words: cell-based or functional assay.

Sequence of Tau seeds: brain fraction from transgenic mice expressing human Tau P301S (human), P10636 (P10636 other isoform, or with tags, fused parts or gaps P301S P301S): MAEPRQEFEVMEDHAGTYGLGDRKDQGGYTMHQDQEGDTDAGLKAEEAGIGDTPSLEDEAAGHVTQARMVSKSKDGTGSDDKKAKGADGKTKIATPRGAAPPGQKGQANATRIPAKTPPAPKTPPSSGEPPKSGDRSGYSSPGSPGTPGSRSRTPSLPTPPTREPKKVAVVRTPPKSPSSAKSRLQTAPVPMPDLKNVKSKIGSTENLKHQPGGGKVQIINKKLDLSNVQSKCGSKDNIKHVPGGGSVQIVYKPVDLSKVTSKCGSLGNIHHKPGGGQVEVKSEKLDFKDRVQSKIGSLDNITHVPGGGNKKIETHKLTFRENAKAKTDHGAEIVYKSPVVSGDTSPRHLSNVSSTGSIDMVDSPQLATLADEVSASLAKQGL

B1: AB1 having a murinised VL of SEQ ID NO: 9 and a murinised VH of SEQ ID NO.: 10 (antibody, V domains shown)
VL: DVVMTQSPASLAVSLGQRATISCQASQSVSSYLAWYQQKPGQPPKLLIYAASYLASGVPSRFKGSGSGTEFTLNIHPVEEEDAATYYCQQGYTRTDIDNTFGGGTKLEIK
VH: QVQLKESGPGLVAPSQSLSITCTVSGIDLSTWRMNWVRQPPGKGLEWIGIIGTGGRTYYANWAKGRFSISKDSTQVFLKMNSLQTEDTATYFCARLGANNNGYPLDLWGAGTTVTVSS
Molecule B1 registered an IC50, cellular Tau aggregation assay of 8 nM and an Imax (maximal efficacy at 300 nM), cellular Tau aggregation assay of 62%.
